According to patent US20050095655A1, “Solution-based methods for detecting MHC-binding peptides” (priority 2003, published 2005):

Assays:
[1] = target: monomer HLA-A*0201/HIVpol (Homo sapiens, UniProt P04439, D140Y/D185E/D98H/E176V/E277Q/G131W/G231S/I119V/I121R/I166T/I218V/L300P/L318F/N151K/N90K/P208A/P217A/Q86G/Q94H/R138H/R169H/T345S); assay: Exchange of fluorescent tracer peptide on template monomer, no competitor
[2] = target: monomer HLA-A*0201/CMVpp65 (Homo sapiens, UniProt P04439, D140Y/D185E/D98H/E176V/E277Q/G131W/G231S/I119V/I121R/I166T/I218V/L300P/L318F/N151K/N90K/P208A/P217A/Q86G/Q94H/R138H/R169H/T345S); assay: as above; details: after 120 h

## FLPSDC(FITC)FPSV [HBVc-FITC]
[1]
  maximum percentage of exchange: 40%
[2]
  % exchange: about 80%
